Publication PMC2860068 (DNA repair, 2010)

B1: GST-hHus1 (natural protein, human, UniProt O60921 1-280, looked up)
chain: MKFRAKIVDGACLNHFTRISNMIAKLAKTCTLRISPDKLNFILCDKLANGGVSMWCELEQENFFNEFQMEGVSAENNEIYLELTSENLSRALKTAQNARALKIKLTNKHFPCLTVSVELLSMSSSSRIVTHDIPIKVIPRKLWKDLQEPVVPDPDVSIYLPVLKTMKSVVEKMKNISNHLVIEANLDGELNLKIETELVCVTTHFKDLGNPPLASESTHEDRNVEHMAEVHIDIRKLLQFLAGQQVNPTKALCNIVNNKMVHFDLLHEDVSLQYFIPALS
B2: GST-hRad1 (natural protein, human, UniProt O60671 1-282, looked up)
chain: MPLLTQQIQDEDDQYSLVASLDNVRNLSTILKAIHFREHATCFATKNGIKVTVENAKCVQANAFIQAGIFQEFKVQEESVTFRINLTVLLDCLSIFGSSPMPGTLTALRMCYQGYGYPLMLFLEEGGVVTVCKINTQEPEETLDFDFCSTNVINKIILQSEGLREAFSELDMTSEVLQITMSPDKPYFRLSTFGNAGSSHLDYPKDSDLMEAFHCNQTQVNRYKISLLKPSTKALVLSCKVSIRTDNRGFLSLQYMIRNEDGQICFVEYYCCPDEEVPESES
B3: GST-hRad9 (natural protein, human, UniProt Q99638 1-391, looked up)
chain: MKCLVTGGNVKVLGKAVHSLSRIGDELYLEPLEDGLSLRTVNSSRSAYACFLFAPLFFQQYQAATPGQDLLRCKILMKSFLSVFRSLAMLEKTVEKCCISLNGRSSRLVVQLHCKFGVRKTHNLSFQDCESLQAVFDPASCPHMLRAPARVLGEAVLPFSPALAEVTLGIGRGRRVILRSYHEEEADSTAKAMVTEMCLGEEDFQQLQAQEGVAITFCLKEFRGLLSFAESANLNLSIHFDAPGRPAIFTIKDSLLDGHFVLATLSDTDSHSQDLGSPERHQPVPQLQAHSTPHPDDFANDDIDSYMIAMETTIGNEGSRVLPSISLSPGPQPPKSPGPHSEEEDEAEPSTVPGTPPPKKFRSLFFGSILAPVRSPQGPSPVLAEDSEGEG

How the values were obtained:
[1] = molecular target: hMSH3 (recombinant, subunit of purified hMutSβ) (human, UniProt P20585 1-1137); test: far-Western
Sequence of hMSH3 (recombinant, subunit of purified hMutSβ) (P20585 whole entry): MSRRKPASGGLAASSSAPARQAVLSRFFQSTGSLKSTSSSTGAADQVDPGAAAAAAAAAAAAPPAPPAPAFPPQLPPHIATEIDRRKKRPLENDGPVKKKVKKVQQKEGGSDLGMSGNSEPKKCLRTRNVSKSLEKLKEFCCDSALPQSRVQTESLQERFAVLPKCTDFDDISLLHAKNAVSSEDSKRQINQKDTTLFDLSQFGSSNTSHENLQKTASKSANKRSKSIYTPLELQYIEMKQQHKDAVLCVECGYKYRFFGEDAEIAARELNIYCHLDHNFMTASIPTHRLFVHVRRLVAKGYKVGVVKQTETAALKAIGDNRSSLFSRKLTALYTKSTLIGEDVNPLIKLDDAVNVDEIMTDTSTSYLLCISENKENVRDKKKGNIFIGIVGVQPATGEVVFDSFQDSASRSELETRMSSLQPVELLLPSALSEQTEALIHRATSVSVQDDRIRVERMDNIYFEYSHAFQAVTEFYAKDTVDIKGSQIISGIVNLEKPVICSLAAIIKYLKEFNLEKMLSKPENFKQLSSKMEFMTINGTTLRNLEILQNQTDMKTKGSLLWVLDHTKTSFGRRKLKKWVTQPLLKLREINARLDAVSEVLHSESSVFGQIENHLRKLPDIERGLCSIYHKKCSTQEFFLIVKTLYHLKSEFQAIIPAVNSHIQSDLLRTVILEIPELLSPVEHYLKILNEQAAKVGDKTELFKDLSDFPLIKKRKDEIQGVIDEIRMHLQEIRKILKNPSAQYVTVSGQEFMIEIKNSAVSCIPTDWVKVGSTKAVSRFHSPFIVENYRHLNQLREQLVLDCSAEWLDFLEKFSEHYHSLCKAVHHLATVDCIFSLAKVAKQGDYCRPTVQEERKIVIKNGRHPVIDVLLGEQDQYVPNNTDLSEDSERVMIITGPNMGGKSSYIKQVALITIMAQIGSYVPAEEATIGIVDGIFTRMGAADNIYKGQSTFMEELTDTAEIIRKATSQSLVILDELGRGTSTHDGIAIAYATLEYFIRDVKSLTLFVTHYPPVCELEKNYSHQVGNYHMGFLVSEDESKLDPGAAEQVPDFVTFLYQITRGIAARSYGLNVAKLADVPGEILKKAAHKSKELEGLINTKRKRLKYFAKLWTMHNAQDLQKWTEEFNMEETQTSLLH

[2] = molecular target: T1, hMSH6 (recombinant, subunit of purified hMutSα) (human, UniProt P52701 1-1360); test: pull-down
T1 sequence (P52701 whole entry): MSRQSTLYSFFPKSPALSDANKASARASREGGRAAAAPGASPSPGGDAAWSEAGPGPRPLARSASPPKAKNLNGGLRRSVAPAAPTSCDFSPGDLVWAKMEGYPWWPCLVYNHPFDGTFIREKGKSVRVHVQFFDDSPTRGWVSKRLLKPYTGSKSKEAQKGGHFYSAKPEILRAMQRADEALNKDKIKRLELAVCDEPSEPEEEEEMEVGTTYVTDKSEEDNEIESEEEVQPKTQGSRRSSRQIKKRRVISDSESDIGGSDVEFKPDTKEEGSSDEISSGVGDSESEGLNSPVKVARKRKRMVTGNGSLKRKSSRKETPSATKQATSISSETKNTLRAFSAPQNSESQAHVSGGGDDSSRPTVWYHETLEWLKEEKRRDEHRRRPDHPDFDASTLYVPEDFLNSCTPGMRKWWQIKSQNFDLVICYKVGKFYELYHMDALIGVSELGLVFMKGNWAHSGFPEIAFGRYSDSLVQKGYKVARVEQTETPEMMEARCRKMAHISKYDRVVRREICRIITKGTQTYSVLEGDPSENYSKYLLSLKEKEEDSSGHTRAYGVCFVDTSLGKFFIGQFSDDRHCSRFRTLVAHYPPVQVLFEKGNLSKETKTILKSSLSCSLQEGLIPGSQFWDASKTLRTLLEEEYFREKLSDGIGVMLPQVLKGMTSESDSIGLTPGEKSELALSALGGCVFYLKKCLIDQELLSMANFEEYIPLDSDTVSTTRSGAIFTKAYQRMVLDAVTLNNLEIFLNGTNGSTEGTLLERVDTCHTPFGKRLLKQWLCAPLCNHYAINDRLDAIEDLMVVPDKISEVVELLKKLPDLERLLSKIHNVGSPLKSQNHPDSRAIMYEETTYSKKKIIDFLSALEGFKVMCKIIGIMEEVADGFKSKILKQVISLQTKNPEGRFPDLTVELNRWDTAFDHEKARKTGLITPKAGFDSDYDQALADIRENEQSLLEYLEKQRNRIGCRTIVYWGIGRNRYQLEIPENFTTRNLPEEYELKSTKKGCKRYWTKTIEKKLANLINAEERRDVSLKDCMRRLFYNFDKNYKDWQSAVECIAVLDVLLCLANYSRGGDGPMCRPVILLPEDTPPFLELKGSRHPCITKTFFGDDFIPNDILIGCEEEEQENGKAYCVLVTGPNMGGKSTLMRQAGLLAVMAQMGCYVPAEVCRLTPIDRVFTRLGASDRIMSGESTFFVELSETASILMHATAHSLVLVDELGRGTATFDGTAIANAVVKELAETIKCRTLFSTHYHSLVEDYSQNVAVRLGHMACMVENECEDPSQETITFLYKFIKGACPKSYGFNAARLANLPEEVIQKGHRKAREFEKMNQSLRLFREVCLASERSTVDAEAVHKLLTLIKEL

[3] = molecular target: T1, hMSH6 (recombinant, subunit of purified …); test: far-Western

| Binder | binding result [1] | binding result [2] | binding result [3] |
| --- | --- | --- | --- |
| B1 | binds | binds |  |
| B2 |  |  | binds |
| B3 |  |  | binds |
